Assay results from patent US20200255860, “A STRONG INSULATOR AND USES […] IN GENE DELIVERY” (CHILDREN'S HOSPITAL MEDICAL CENTER, published 2020).

T1: CTCF (Homo sapiens, UniProt P49711 P49711:1-727)
T1 sequence: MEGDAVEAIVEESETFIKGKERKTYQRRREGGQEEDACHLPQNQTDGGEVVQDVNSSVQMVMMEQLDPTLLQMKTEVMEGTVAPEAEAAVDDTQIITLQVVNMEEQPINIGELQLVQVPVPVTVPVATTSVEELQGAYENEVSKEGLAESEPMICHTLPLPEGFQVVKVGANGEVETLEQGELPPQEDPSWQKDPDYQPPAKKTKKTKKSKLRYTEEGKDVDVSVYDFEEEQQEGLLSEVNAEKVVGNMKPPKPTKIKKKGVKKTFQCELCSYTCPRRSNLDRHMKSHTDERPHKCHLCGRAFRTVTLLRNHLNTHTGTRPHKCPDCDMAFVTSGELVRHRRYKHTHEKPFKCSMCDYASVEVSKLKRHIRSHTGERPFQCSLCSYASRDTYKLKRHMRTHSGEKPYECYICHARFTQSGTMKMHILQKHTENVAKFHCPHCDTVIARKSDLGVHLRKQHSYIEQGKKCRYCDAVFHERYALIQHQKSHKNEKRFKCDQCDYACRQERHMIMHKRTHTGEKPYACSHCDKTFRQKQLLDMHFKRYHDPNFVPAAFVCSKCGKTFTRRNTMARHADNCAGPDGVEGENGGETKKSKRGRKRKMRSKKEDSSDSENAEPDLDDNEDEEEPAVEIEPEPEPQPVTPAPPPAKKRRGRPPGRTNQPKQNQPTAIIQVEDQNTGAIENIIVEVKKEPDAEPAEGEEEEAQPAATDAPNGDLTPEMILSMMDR


Tests used:
Conditions in all cases: tags: full-length, Abnova; label: IRDye700 5' both strands
CTCF [1] = target: T1, CTCF; assay: EMSA; 20 mM HEPES pH 7.5, 50 mM KCl, 5 mM MgCl2, 3.3 uM ZnSO4, poly(dI:dC), room temp; competed by unlabeled H19
CTCF [2] = target: T1, CTCF; assay: EMSA; no LV probe bound
CTCF [3] = target: T1, CTCF; assay: EMSA; region 4 mutated, no effect

| Binder | binding result (CTCF [2]) | further results |
| --- | --- | --- |
| FV2 probe (dsDNA) DNA 1: AGTAAAAGGATTTGTATATTAGCCTTGCTAAGGGAGACATCTAGTGATATAAGTGTGAACTACACTTATCTTAAATGATG DNA 2: CATCATTTAAGATAAGTGTAGTTCACACTTATATCACTAGATGTCTCCCTTAGCAAGGCTAATATACAAATCCTTTTACT |  | binding result (CTCF [1]): binds |
| LV3 probe (dsDNA) DNA 1: GTCGGGGAAGCTGACGTCCTTTCGAATTCGATATCAAGCTGTACCTTTAAGACCAATGACTTACAAGGCAGCTGTAGATC DNA 2: GATCTACAGCTGCCTTGTAAGTCATTGGTCTTAAAGGTACAGCTTGATATCGAATTCGAAAGGACGTCAGCTTCCCCGAC | no binding |  |
| FV2 mutant 4 (dsDNA) DNA 1: AGTAAAAGGATTTGTATAGGCTTTATATCAAGGGAGACATCTAGTGATATAAGTGTGAACTACACTTATCTTAAATGATG DNA 2: CATCATTTAAGATAAGTGTAGTTCACACTTATATCACTAGATGTCTCCCTTGATATAAAGCCTATACAAATCCTTTTACT |  | binding result (CTCF [3]): binds |
| LV1 probe (dsDNA) DNA 1: ACAAGATAGAGGAAGAGCAAAACAAAAGTAAGACCACCGCACAGCAAGCGGCCGCTGATCTTCAGACCTGGAGGAGGAGATATGAGGGA DNA 2: TCCCTCATATCTCCTCCTCCAGGTCTGAAGATCAGCGGCCGCTTGCTGTGCGGTGGTCTTACTTTTGTTTTGCTCTTCCTCTATCTTGT | no binding |  |
| LV2 probe (dsDNA) DNA 1: GATACCTAAAGGATCAACAGCTCCTGGGGATTTGGGGTTGCTCTGGAAAACTCATTTGCACCACTGCTGTGCCTTGGAATGCT DNA 2: AGCATTCCAAGGCACAGCAGTGGTGCAAATGAGTTTTCCAGAGCAACCCCAAATCCCCAGGAGCTGTTGATCCTTTAGGTATC | no binding |  |
